Experimental data taken from US20240116985A1 (published 2024).
Starred links: 1 amine or outer side, 2 acyl side, 3 side chain; linkers in the order of their positions; H or OH if unused. Positions of bridges follow the written chain, without caps; N, C: chain ends. Non-standard residues stand in square brackets, D forms with d. Groups on a side chain read outwards from the residue. Primed or numbered codes have the meaning given here. *: point of attachment. (4Pippip)GlnR = (S)-5-([1,4'-bipiperidin]-1'-yl)-2-amino-5-oxopentanoic acid (Gln side-chain amide with 4-piperidinopiperidine), O=C(CC[C@H](N[*:1])C(=O)[*:2])N1CCC(N2CCCCC2)CC1; (4MePpzPip)GlnR = (S)-2-amino-5-(4-(4-methylpiperazin-1-yl)piperidin-1-yl)-5-oxopentanoic acid, CN1CCN(C2CCN(C(=O)CC[C@H](N[*:1])C(=O)[*:2])CC2)CC1; PyrS2″ = (S)-3-amino-1-((pent-4-en-1-yloxy)carbonyl)pyrrolidine-3-carboxylic acid (stapling residue), C=CCCCOC(=O)N1CC[C@@](N[*:1])(C(=O)[*:2])C1; (TfePpz)GlnR = (S)-2-amino-5-oxo-5-(4-(2,2,2-trifluoroethyl)piperazin-1-yl)pentanoic acid, O=C(CC[C@H](N[*:1])C(=O)[*:2])N1CCN(CC(F)(F)F)CC1; B5(4) = 2,2-bis(4-pentenyl)glycine = 2-amino-2-(pent-4-en-1-yl)hept-6-enoic acid (stitching residue), C=CCCCC(CCCC=C)(N[*:1])C(=O)[*:2]; TfeGA = (S)-2-amino-3-((carboxymethyl)(2,2,2-trifluoroethyl)amino)propanoic acid, O=C([C@H](CN(CC(=O)[*:3])CC(F)(F)F)N[*:1])[*:2]; PyrS1 = (S)-3-amino-1-((but-3-en-1-yloxy)carbonyl)pyrrolidine-3-carboxylic acid, C=CCCOC(=O)N1CC[C@@](N[*:1])(C(=O)[*:2])C1; B5(19) = 2-amino-2-(pent-4-en-1-yl)hept-6-enoic acid (bis(4-pentenyl)glycine), C=CCCCC(CCCC=C)(N[*:1])C(=O)[*:2]; F2PipNva = (S)-2-amino-5-(4,4-difluoropiperidin-1-yl)pentanoic acid, O=C([C@H](CCCN1CCC(F)(F)CC1)N[*:1])[*:2]; Lithocholoyl = C[C@H](CCC(=O)*)[C@H]1CC[C@H]2[C@@H]3CC[C@@H]4C[C@H](O)CC[C@]4(C)[C@H]3CC[C@]12C; MorphAsn = (S)-2-amino-4-morpholino-4-oxobutanoic acid, O=C(C[C@H](N[*:1])C(=O)[*:2])N1CCOCC1; B5(3) = 2,2-bis(4-pentenyl)glycine (stitching residue), C=CCCCC(CCCC=C)(N[*:1])C(=O)[*:2]; Me3AdamantC = 3,5,7-trimethyladamantane-1-carbonyl, CC12CC3(C)CC(C)(C1)CC(C(=O)*)(C2)C3; Nva(5-morpholino) = N[C@@H](CCCN1CCOCC1)C(=O)O; Bta = N[C@@H](Cc1csc2ccccc12)C(=O)O; αAllylPro = C=CC[C@@]1(C(=O)O)CCCN1; tBuAla = CC(C)(C)C[C@H](N)C(=O)O; 3Thi = N[C@@H](Cc1ccsc1)C(=O)O; PEG2′ = not defined here

T1: Bcat-Halo (beta-catenin HaloTag construct transfected into HEK293 cells) (UniProt P35222 1-781)
T1 sequence (looked up): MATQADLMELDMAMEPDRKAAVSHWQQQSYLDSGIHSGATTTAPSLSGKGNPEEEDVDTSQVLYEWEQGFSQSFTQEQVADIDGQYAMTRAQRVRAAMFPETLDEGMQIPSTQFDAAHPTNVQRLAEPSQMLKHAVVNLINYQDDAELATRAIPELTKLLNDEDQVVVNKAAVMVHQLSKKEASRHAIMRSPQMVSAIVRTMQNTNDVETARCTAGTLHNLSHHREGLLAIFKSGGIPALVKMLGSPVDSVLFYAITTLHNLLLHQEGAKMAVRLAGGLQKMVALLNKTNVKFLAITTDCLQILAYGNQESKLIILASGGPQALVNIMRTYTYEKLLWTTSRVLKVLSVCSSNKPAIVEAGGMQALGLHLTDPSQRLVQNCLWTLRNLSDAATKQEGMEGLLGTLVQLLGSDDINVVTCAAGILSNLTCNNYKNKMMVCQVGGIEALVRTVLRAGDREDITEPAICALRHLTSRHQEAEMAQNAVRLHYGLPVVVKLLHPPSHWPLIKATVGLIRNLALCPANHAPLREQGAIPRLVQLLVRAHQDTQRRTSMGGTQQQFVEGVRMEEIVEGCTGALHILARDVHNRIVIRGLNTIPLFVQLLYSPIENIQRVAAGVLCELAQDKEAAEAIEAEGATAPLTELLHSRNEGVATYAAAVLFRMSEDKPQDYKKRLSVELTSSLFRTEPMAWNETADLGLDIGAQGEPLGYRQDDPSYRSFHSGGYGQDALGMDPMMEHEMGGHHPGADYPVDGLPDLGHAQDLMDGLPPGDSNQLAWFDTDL

T2: B-cat-Halo (beta-catenin HaloTag NanoBRET construct expressed in HEK293 cells) (UniProt P35222 1-781, HaloTag NanoBRET 618 Ligand bound in the assay)
T2 sequence (looked up): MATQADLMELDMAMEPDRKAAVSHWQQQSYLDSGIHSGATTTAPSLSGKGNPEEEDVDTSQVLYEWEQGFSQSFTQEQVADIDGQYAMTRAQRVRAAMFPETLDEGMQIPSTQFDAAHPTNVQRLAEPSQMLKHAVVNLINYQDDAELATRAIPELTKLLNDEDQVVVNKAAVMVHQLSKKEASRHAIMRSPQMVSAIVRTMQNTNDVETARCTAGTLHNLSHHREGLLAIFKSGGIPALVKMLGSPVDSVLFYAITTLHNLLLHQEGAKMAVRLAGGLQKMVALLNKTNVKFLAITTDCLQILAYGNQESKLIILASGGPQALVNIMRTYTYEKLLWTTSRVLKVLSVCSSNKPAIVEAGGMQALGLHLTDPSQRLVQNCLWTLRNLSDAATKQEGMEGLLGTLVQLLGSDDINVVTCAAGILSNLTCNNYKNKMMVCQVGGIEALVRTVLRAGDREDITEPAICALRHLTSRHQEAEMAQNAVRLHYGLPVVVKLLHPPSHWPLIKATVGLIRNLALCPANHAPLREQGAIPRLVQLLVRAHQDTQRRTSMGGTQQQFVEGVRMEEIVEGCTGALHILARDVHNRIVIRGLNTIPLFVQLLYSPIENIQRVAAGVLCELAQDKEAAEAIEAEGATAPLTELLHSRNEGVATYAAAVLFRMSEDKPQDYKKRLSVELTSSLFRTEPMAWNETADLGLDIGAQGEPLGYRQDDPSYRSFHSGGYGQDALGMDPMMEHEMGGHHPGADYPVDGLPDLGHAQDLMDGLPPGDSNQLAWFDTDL

B1: I-1476 (peptide)
peptide: Ac-[αAllylPro]D[tBuAla][B5(4)]DDAK([PEG2′-Me3AdamantC])FL[PyrS2″][3Thi][Bta]Q-NH2
modifications: staple 1-4, 4-11
B2: I-1483 (peptide)
peptide: Ac-[αAllylPro]D[tBuAla][B5(3)]DD[MorphAsn]AFL[PyrS2″][3Thi][Bta]Q-NH2
modifications: staple 1-4, 4-11
B3: I-1474 (peptide)
peptide: Ac-[αAllylPro]D[tBuAla][B5(4)]DDAK([PEG2′-Lithocholoyl])FL[PyrS2″][3Thi][Bta]Q-NH2
modifications: staple 1-4, 4-11
B4: I-1482 (peptide)
peptide: Ac-[αAllylPro]D[tBuAla][B5(3)]DD[F2PipNva]AFL[PyrS2″][3Thi][Bta]Q-NH2
modifications: staple 1-4, 4-11
B5: I-1480 (peptide)
peptide: Ac-[αAllylPro]D[tBuAla][B5(3)]DDAAFL[PyrS2″][3Thi][Bta]QK([PEG2′-Me3AdamantC])-NH2
modifications: staple 1-4, 4-11
B6: I-1481 (peptide)
peptide: Ac-[αAllylPro]D[tBuAla][B5(3)]DD[Nva(5-morpholino)]AFL[PyrS2″][3Thi][Bta]Q-NH2
modifications: staple 1-4, 4-11
B7: I-1478 (peptide)
peptide: Ac-[αAllylPro]D[tBuAla][B5(4)]DDAAFL[PyrS2″][3Thi][Bta]QK([PEG2′-Lithocholoyl])-NH2
modifications: staple 1-4, 4-11
B8: I-1797 (peptide)
peptide: Ac-[αAllylPro]D[tBuAla][B5(3)]D[TfeGA]AAFL[PyrS2″][3Thi][Bta][(4Pippip)GlnR]-NH2
modifications: staple 1-4, 4-11; not fully specified
B9: I-1815 (peptide)
peptide: Ac-[αAllylPro]D[tBuAla][B5(19)]DDAAFL[PyrS1][3Thi][Bta]Q-NH2
modifications: staple 1-4, 4-11; not fully specified; printed as Ac-PL3-Asp-Npg-B5-Asp-Asp-Ala-Ala-Phe-Leu-PyrS1-3Thi-BztA-Gln-NH2
B10: I-1813 (peptide)
peptide: Ac-[αAllylPro]D[tBuAla][B5(19)]DDAAFN[PyrS1][3Thi][Bta]Q-NH2
modifications: staple 1-4, 4-11; not fully specified; printed as Ac-PL3-Asp-Npg-B5-Asp-Asp-Ala-Ala-Phe-Asn-PyrS1-3Thi-BztA-Gln-NH2
B11: I-1801 (peptide)
peptide: Ac-[αAllylPro]D[tBuAla][B5(3)]D[TfeGA]AAFL[PyrS2″][3Thi][Bta][(4MePpzPip)GlnR]-NH2
modifications: staple 1-4, 4-11; not fully specified
B12: I-1803 (peptide)
peptide: Ac-[αAllylPro]D[tBuAla][B5(3)]D[TfeGA]AAFL[PyrS2″][3Thi][Bta][(TfePpz)GlnR]-NH2
modifications: staple 1-4, 4-11

target: T1, Bcat-Halo (beta-catenin HaloTag …); test: cell-based or functional assay

Row | Binder | NanoBRET Abs IC50 [µM]
1 | B1 | > 20
2 | B2 | > 20
3 | B3 | > 20
4 | B4 | 18
5 | B5 | 9.3
6 | B6 | 39.7
7 | B7 | 17.1

target: T2, B-cat-Halo (beta-catenin HaloTag …); test: cell-based or functional assay

Row | Binder | NanoBRET Abs IC50 [µM]
8 | B8 | 22.5
9 | B9 | > 20
10 | B10 | > 20
11 | B11 | 17.5
12 | B12 | 7.4
